The test system of the data set is ATP. The data set is described as follows: switch fluorescence ratio, 500 uM ATP over buffer (Cy3 cluster intensity, sum of 5 cycles each) (fold (ratio)); higher = stronger signal-on switching upon ATP binding; sequences stand for … in TCGTCGGCAGCGTCAGATGTGTATAAGAGACAGTTTTTTTTTTTTTTTTTTTTTTTTT…TC. The settings on record: aptamer strand: ATP DNA aptamer (quencher-CACCTGGGGGAGTATTGCGGAGGAAGG + anchor), 100 nM annealed; ATP concentration: 500 uM. The method in brief: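 Cy3-labelled switching-strand clusters on a modified Illumina MiSeq flow-cell were annealed to 100 nM quencher-labelled ATP aptamer and imaged first in selection buffer, then after 15 min with 500 uM ATP at 22 °C. NaOH stripping and re-annealing separated each of five buffer/ATP cycles, and clusters outside 100-1000 RFU were excluded. The fluorescence ratio sums target-cycle Cy3 intensity over buffer-cycle Cy3 intensity per cluster and averages it per switch-domain sequence.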

± gives the standard deviation of the averaged measurements.
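Further: ATP exposure 15 min at 22 °C before imaging.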

Take TTCAATTGGA: the switch fluorescence ratio stood at 1 ± 0.042.

Consider TGGATTCATG, for which the switch fluorescence ratio is 0.978 ± 0.06.

TTAGTCGTCG: the switch fluorescence ratio was determined as 1 ± 0.06.

For the sequence AAAATGCGTT, the switch fluorescence ratio was 1.02 ± 0.029.

On to TTCCTGCTTG, for which the switch fluorescence ratio stood at 1.36 ± 0.6.

In the case of TAATTGACCG, the switch fluorescence ratio was determined as 1.091 ± 0.0088.

For GAGGGTAGAG, the switch fluorescence ratio is 1.01 ± 0.042.

Take TGGCGCCGGG: the switch fluorescence ratio worked out at 0.9958 ± 0.0091.

With GGGTCTGGTT, the switch fluorescence ratio came out at 0.976 ± 0.033.

With GGTCTCCTTT, the switch fluorescence ratio is 0.971 ± 0.018.

Take TTAGGCCGGA: the switch fluorescence ratio is 1.04 ± 0.075.

As for GCAGGAGCGG, the switch fluorescence ratio came to 0.998 ± 0.0094.

TTGTTGTTCC: the switch fluorescence ratio was 1.08 ± 0.063.

As for GGCGTTGCGG, the switch fluorescence ratio amounted to 0.9849 ± 0.0058.

For TTACGCTACT, the switch fluorescence ratio was 1.802 ± 0.0047.

As to ATGCGGGCCA, the switch fluorescence ratio came out at 1.012 ± 0.0061.

Consider CGGGGGCAGA, for which the switch fluorescence ratio was 1 ± 0.023.

Regarding AGGCTATATT, the switch fluorescence ratio turned out to be 0.975 ± 0.01.

On to TTTTATCAA, for which the switch fluorescence ratio turned out to be 1.07 ± 0.12.

Turning to GAGGAGCGGT, the switch fluorescence ratio was 1 ± 0.017.

ATCATTTTTG: the switch fluorescence ratio amounted to 1 ± 0.025.

As to TCTGGTAGCG, the switch fluorescence ratio was 1.02 ± 0.021.

Regarding TTTTTTCGGG, the switch fluorescence ratio came to 0.993 ± 0.023.

Turning to TATCCATGGG, the switch fluorescence ratio is 0.978 ± 0.03.

On to TATTTGTGCG, for which the switch fluorescence ratio worked out at 0.988 ± 0.035.

In the case of AGGGTAGGGA, the switch fluorescence ratio came out at 0.9917 ± 0.004.

Turning to GATTAGTGTG, the switch fluorescence ratio was determined as 0.995 ± 0.05.

For GATGCTTCTT, the switch fluorescence ratio amounted to 0.985 ± 0.019.

On to TCAAAAATAT, for which the switch fluorescence ratio worked out at 0.987 ± 0.025.

As for TATATGGCCC, the switch fluorescence ratio amounted to 1.02 ± 0.02.

Turning to ACAGCGTGTG, the switch fluorescence ratio came to 1.03 ± 0.011.

GCCTGATACA: the switch fluorescence ratio came to 1.02 ± 0.031.

ATTTTTAGCA: the switch fluorescence ratio amounted to 0.99765 ± 0.00045.

On to ATAGTGTGTG, for which the switch fluorescence ratio came to 1.004 ± 0.008.

Turning to CGGGGGGATT, the switch fluorescence ratio was 0.997 ± 0.012.

Regarding TATATTTTAT, the switch fluorescence ratio was 0.982 ± 0.035.

As for AATTCGCGTT, the switch fluorescence ratio stood at 0.9868 ± 0.004.

On to TGTGTTTTAG, for which the switch fluorescence ratio is 0.976 ± 0.015.

As for CCTGGGGGGT, the switch fluorescence ratio came to 1.06 ± 0.13.

As for TCGGTTGTTG, the switch fluorescence ratio was 1.01 ± 0.013.

As for TCTGACGTAC, the switch fluorescence ratio worked out at 2.57 ± 0.19.

In the case of CCGGGAAGGC, the switch fluorescence ratio was found to be 2.043 ± 0.0097.

With TTTTTGGGCC, the switch fluorescence ratio is 0.994 ± 0.017.

Take TATTTGGGTT: the switch fluorescence ratio is 1.07 ± 0.082.

Regarding GCGGATGGCA, the switch fluorescence ratio was 1 ± 0.038.

On to GCAGCAGCTT, for which the switch fluorescence ratio was determined as 1.01 ± 0.039.

For TTTCCTGTAT, the switch fluorescence ratio came to 0.972 ± 0.046.

With TTTTTGGGGG, the switch fluorescence ratio was determined as 0.997 ± 0.035.

As for TCTACATGAT, the switch fluorescence ratio worked out at 1.05 ± 0.013.

Consider AAGGGGCGAG, for which the switch fluorescence ratio worked out at 0.9796 ± 0.0074.

In the case of GAGTCTTATA, the switch fluorescence ratio worked out at 1.01 ± 0.031.

As to TCTTGTAGCG, the switch fluorescence ratio was 0.986 ± 0.016.

For CATGATTATG, the switch fluorescence ratio is 0.972 ± 0.012.

With GTGATTTAGA, the switch fluorescence ratio came to 0.9969 ± 0.0054.

Take ATGGTTGGAC: the switch fluorescence ratio was determined as 0.9925 ± 0.0094.

As for TTACGGGCTA, the switch fluorescence ratio is 0.9975 ± 0.0081.

For the sequence GATTCAGACA, the switch fluorescence ratio was 0.963 ± 0.015.

With AATCCCGGGG, the switch fluorescence ratio came to 1.19 ± 0.21.

Regarding CGTGTTTCGG, the switch fluorescence ratio is 0.97715 ± 0.00018.

For the sequence TTTGGGAAGG, the switch fluorescence ratio came out at 0.985 ± 0.034.

Turning to GGGTGAGGCG, the switch fluorescence ratio is 0.981 ± 0.038.

For CGCGGCAAGG, the switch fluorescence ratio came to 1.32 ± 0.31.

GGGTTAAACT: the switch fluorescence ratio was determined as 0.987 ± 0.023.

Regarding TTATCTCACT, the switch fluorescence ratio came out at 1.06 ± 0.014.

Take AAAGGGGAGG: the switch fluorescence ratio amounted to 1.01 ± 0.033.

As for TACCCGGGGT, the switch fluorescence ratio came to 0.9827 ± 0.0097.

For the sequence CTAACATCCG, the switch fluorescence ratio is 1.06 ± 0.025.

As for TTGCTAAATG, the switch fluorescence ratio turned out to be 1 ± 0.013.

In the case of GGGCGCGGTG, the switch fluorescence ratio was 1.06 ± 0.081.

On to CAATAGGAGA, for which the switch fluorescence ratio was found to be 0.981 ± 0.028.

As to TTATTGAGGT, the switch fluorescence ratio was determined as 0.981 ± 0.012.

TTTGAGGTCT: the switch fluorescence ratio is 1.05 ± 0.072.

In the case of TCATACGTCT, the switch fluorescence ratio is 0.986 ± 0.09.

Turning to ATCGAAGGCA, the switch fluorescence ratio is 0.9862 ± 0.008.

For the sequence ATGTTACCGG, the switch fluorescence ratio amounted to 1.054 ± 0.0038.

Take AGGATGGACC: the switch fluorescence ratio turned out to be 1.01 ± 0.024.

Regarding TCCGGCGGTG, the switch fluorescence ratio stood at 1.03 ± 0.027.

TGATGGGGCA: the switch fluorescence ratio came out at 1.02 ± 0.021.

Consider GCCTTTTGTT, for which the switch fluorescence ratio stood at 0.995 ± 0.027.

Source of the values: the supplement of paper PMC10126150.
